Experimental data published in the nanobody polyreactivity screen of Harvey et al. (2022).

Assay: yeast display, Sf9 membrane polyspecificity reagent, FACS + sequencing; frameworks hold sequencing errors
Outline: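 Galactose-induced (36–48 hours) yeast carrying a synthetic nanobody display library were exposed to 10% biotinylated, detergent-solubilized Sf9 membrane reagent at 4 °C for 1 hour. FACS followed streptavidin microbead enrichment, using low and high (top ~1%) gates for expression (anti-HA) and reagent binding (streptavidin). Colony PCR, MiSeq 2 × 250 sequencing and CDR-length filtering followed. Labels for polyreactivity reflect the gate of origin.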

| Sequence | polyreactivity (PSR sort gate) |
| --- | --- |
| QVQLVESGGGLVQAGGSLRLSCAASGSIFPWYAMGWYRQAPGKERELVAAISTGGSTYYADSVKGRFTISRDNAKNTVYLQMNSLKPEDTAVYYCAAAYGKYRFGYWGQGTQVTVSS | high polyreactivity |
| QVQLVESGGGLVQSGGSLRLSCAASGSTIPPNAMGWYRQAPGKERELVAGISYGGSTTYADSVKGRFTISRDNAKNTVYLQMNSLKPEDTAVYYCAADQPYWRDYDYWGQGTQVTVSS | low polyreactivity |
| QVQLVESVGGLVQAGASLPLSCAASGRIFPYYAMGWYRQAPGKESEFVAAITKRGGSTSYADSVKGRFTISRDNAKNTVYLQMNSLKPEDTAVYYCAARRGSGFFTYYGGAFWGQGTLVTVSS | low polyreactivity |
| QVQLVESGGGLVQAGGSLRLSCAASGSTFNYYTMGWYRQEPGKETELVAAISGRVSITYYADSVKGRFTISRDNAKNTVYLQMISLKPEDTAVYYCAAGPGYVRYPRSGVWYVTLYDYWGQGSQVTVSS | high polyreactivity |
